From US20240018252A1 (Pfizer, published 2024)

What was measured:
[1] = molecular target: T1, cyBCMA (cynomolgus, UniProt A0A2K5UD97 1-53); assay: SPR, immobilised IgG, 25° C
T1 construct: Soluble analyte in SPR; construct not described; also called cyno BCMA

[2] = molecular target: T2, human BCMA (human, UniProt Q02223 1-54); assay: SPR, immobilised IgG, 25° C
T2 construct: also called huBCMA; hBCMA
T2 sequence: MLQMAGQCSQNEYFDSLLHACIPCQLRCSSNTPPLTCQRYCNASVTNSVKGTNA

[3] = molecular target: T1, cyBCMA; assay: SPR, immobilised IgG, 37° C
[4] = molecular target: T2, human BCMA; assay: SPR, immobilised IgG, 37° C

T1 sequence (A0A2K5UD97 entry or part of it): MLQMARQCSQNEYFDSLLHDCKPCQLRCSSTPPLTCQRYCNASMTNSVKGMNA

B1: L1.GDF/L3.KW/H3.AL (antibody, V domains shown)
VH: EVQLLESGGGLVQPGGSLRLSCAASGFTFGSYAMTWVRQAPGKGLEWVSAISGSGGNTFYADSVKGRFTISRDNSKNTLYLQMNSLRAEDTAVYYCARVSPIAALMDYWGQGTLVTVSS
VL: EIVLTQSPGTLSLSPGERATLSCRASQSVGDFYLAWYQQKPGQAPRLLIYGASSRATGIPDRFSGSGSGTDFTLTISRLEPEDFAVYYCKHYGWPPSFTFGQGTKVEIK
notes: IgG in the assay
Which results are given for B1?
T½ [1]: 0.6 min; T½ [2]: 2.96 min

B2: L3.PY/L1.FF/P6E01 (antibody, V domains shown)
VH: EVQLLESGGGLVQPGGSLRLSCAASGFTFGSYAMTWVRQAPGKGLEWVSAISGSGGNTFYADSVKGRFTISRDNSKNTLYLQMNSLRAEDTAVYYCARVSPIASGMDYWGQGTLVTVSS
VL: EIVLTQSPGTLSLSPGERATLSCRASQSVSSFFLAWYQQKPGQAPRLLIYGASSRATGIPDRFSGSGSGTDFTLTISRLEPEDFAVYYCQHYPYPPSFTFGQGTKVEIK
notes: IgG in the assay
What does the source list for B2?
T½ [3]: 1.96 min; T½ [4]: 8.18 min

B3: L3.PY/L1.PS/H3.AE (antibody, V domains shown)
VH: EVQLLESGGGLVQPGGSLRLSCAASGFTFGSYAMTWVRQAPGKGLEWVSAISGSGGNTFYADSVKGRFTISRDNSKNTLYLQMNSLRAEDTAVYYCARVSPIAAEMDYWGQGTLVTVSS
VL: EIVLTQSPGTLSLSPGERATLSCRASQSVSSSYPSWYQQKPGQAPRLLIYGASSRATGIPDRFSGSGSGTDFTLTISRLEPEDFAVYYCQHYPYPPSFTFGQGTKVEIK
notes: IgG in the assay
Which results are given for B3?
T½ [3]: 2.8 min; T½ [4]: 7.93 min

B4: L1.GDF/L3.KW/H3.AP (antibody, V domains shown)
VH: EVQLLESGGGLVQPGGSLRLSCAASGFTFGSYAMTWVRQAPGKGLEWVSAISGSGGNTFYADSVKGRFTISRDNSKNTLYLQMNSLRAEDTAVYYCARVSPIAAPMDYWGQGTLVTVSS
VL: EIVLTQSPGTLSLSPGERATLSCRASQSVGDFYLAWYQQKPGQAPRLLIYGASSRATGIPDRFSGSGSGTDFTLTISRLEPEDFAVYYCKHYGWPPSFTFGQGTKVEIK
notes: IgG in the assay
What does the source list for B4?
T½ [1]: 0.6 min; T½ [2]: 2.51 min

B5: L3.PY/L3.KF/P6E01 (antibody, V domains shown)
VH: EVQLLESGGGLVQPGGSLRLSCAASGFTFGSYAMTWVRQAPGKGLEWVSAISGSGGNTFYADSVKGRFTISRDNSKNTLYLQMNSLRAEDTAVYYCARVSPIASGMDYWGQGTLVTVSS
VL: EIVLTQSPGTLSLSPGERATLSCRASQSVSSSYLAWYQQKPGQAPRLLIYGASSRATGIPDRFSGSGSGTDFTLTISRLEPEDFAVYYCKFYPYPPSFTFGQGTKVEIK
notes: IgG in the assay
What does the source list for B5?
T½ [3]: 1.39 min; T½ [4]: 5.56 min

B6: P6E01/H3.AQ (antibody, V domains shown)
VH: EVQLLESGGGLVQPGGSLRLSCAASGFTFGSYAMTWVRQAPGKGLEWVSAISGSGGNTFYADSVKGRFTISRDNSKNTLYLQMNSLRAEDTAVYYCARVSPIAAQMDYWGQGTLVTVSS
VL: not shown
notes: IgG in the assay
With B6 as the binder, how does the “T½” value [2] read?
The value was 33.5 min.

B7: L3.PY/L1.AH/P6E01 (antibody, V domains shown)
VH: EVQLLESGGGLVQPGGSLRLSCAASGFTFGSYAMTWVRQAPGKGLEWVSAISGSGGNTFYADSVKGRFTISRDNSKNTLYLQMNSLRAEDTAVYYCARVSPIASGMDYWGQGTLVTVSS
VL: EIVLTQSPGTLSLSPGERATLSCRASQSVSAHYLAWYQQKPGQAPRLLIYGASSRATGIPDRFSGSGSGTDFTLTISRLEPEDFAVYYCQHYPYPPSFTFGQGTKVEIK
notes: IgG in the assay
For B7, which “T½” value [3] is on record?
Its value is 2.02 min.

What about the “T½” value [4] of the same binder?
Its value is 9.19 min.

B8: L3.PY/L1.PS/H3.TAQ (antibody, V domains shown)
VH: EVQLLESGGGLVQPGGSLRLSCAASGFTFGSYAMTWVRQAPGKGLEWVSAISGSGGNTFYADSVKGRFTISRDNSKNTLYLQMNSLRAEDTAVYYCTRVSPIAAQMDYWGQGTLVTVSS
VL: EIVLTQSPGTLSLSPGERATLSCRASQSVSSSYPSWYQQKPGQAPRLLIYGASSRATGIPDRFSGSGSGTDFTLTISRLEPEDFAVYYCQHYPYPPSFTFGQGTKVEIK
notes: IgG in the assay
Which results are given for B8?
T½ [3]: 2.09 min; T½ [4]: 4.7 min

B9: L3.PY/L1.PS/H3.YA (antibody, V domains shown)
VH: EVQLLESGGGLVQPGGSLRLSCAASGFTFGSYAMTWVRQAPGKGLEWVSAISGSGGNTFYADSVKGRFTISRDNSKNTLYLQMNSLRAEDTAVYYCARVSPIYAGMDYWGQGTLVTVSS
VL: EIVLTQSPGTLSLSPGERATLSCRASQSVSSSYPSWYQQKPGQAPRLLIYGASSRATGIPDRFSGSGSGTDFTLTISRLEPEDFAVYYCQHYPYPPSFTFGQGTKVEIK
notes: IgG in the assay
Which results are given for B9?
T½ [3]: 1.16 min; T½ [4]: 1.28 min

B10: L3.PY/L1.PS/H2.DY (antibody, V domains shown)
VH: EVQLLESGGGLVQPGGSLRLSCAASGFTFGSYAMTWVRQAPGKGLEWVSAIDYSGGNTFYADSVKGRFTISRDNSKNTLYLQMNSLRAEDTAVYYCARVSPIASGMDYWGQGTLVTVSS
VL: EIVLTQSPGTLSLSPGERATLSCRASQSVSSSYPSWYQQKPGQAPRLLIYGASSRATGIPDRFSGSGSGTDFTLTISRLEPEDFAVYYCQHYPYPPSFTFGQGTKVEIK
notes: IgG in the assay
For B10, which “T½” value [3] is on record?
Its value is 3.06 min.

What about the “T½” value [4] of the same binder?
Its value is 3.2 min.

B11: L3.PY/L1.PS/H3.AQ (antibody, V domains shown)
VH: EVQLLESGGGLVQPGGSLRLSCAASGFTFGSYAMTWVRQAPGKGLEWVSAISGSGGNTFYADSVKGRFTISRDNSKNTLYLQMNSLRAEDTAVYYCARVSPIAAQMDYWGQGTLVTVSS
VL: EIVLTQSPGTLSLSPGERATLSCRASQSVSSSYPSWYQQKPGQAPRLLIYGASSRATGIPDRFSGSGSGTDFTLTISRLEPEDFAVYYCQHYPYPPSFTFGQGTKVEIK
notes: IgG in the assay
Which results are given for B11?
T½ [3]: 2.67 min; T½ [4]: 6.46 min

B12: L3.PY/L3.KY/P6E01 (antibody, V domains shown)
VH: EVQLLESGGGLVQPGGSLRLSCAASGFTFGSYAMTWVRQAPGKGLEWVSAISGSGGNTFYADSVKGRFTISRDNSKNTLYLQMNSLRAEDTAVYYCARVSPIASGMDYWGQGTLVTVSS
VL: EIVLTQSPGTLSLSPGERATLSCRASQSVSSSYLAWYQQKPGQAPRLLIYGASSRATGIPDRFSGSGSGTDFTLTISRLEPEDFAVYYCKYYPYPPSFTFGQGTKVEIK
notes: IgG in the assay
What does the source list for B12?
T½ [3]: 2.3 min; T½ [4]: 10.7 min

B13: L3.PY/L1.PS/H2.LT (antibody, V domains shown)
VH: EVQLLESGGGLVQPGGSLRLSCAASGFTFGSYAMTWVRQAPGKGLEWVSAISLTGGNTFYADSVKGRFTISRDNSKNTLYLQMNSLRAEDTAVYYCARVSPIASGMDYWGQGTLVTVSS
VL: EIVLTQSPGTLSLSPGERATLSCRASQSVSSSYPSWYQQKPGQAPRLLIYGASSRATGIPDRFSGSGSGTDFTLTISRLEPEDFAVYYCQHYPYPPSFTFGQGTKVEIK
notes: IgG in the assay
Which results are given for B13?
T½ [3]: 2.81 min; T½ [4]: 2.49 min

B14: L3.PY/L1.PS/H2.HA (antibody, V domains shown)
VH: EVQLLESGGGLVQPGGSLRLSCAASGFTFGSYAMTWVRQAPGKGLEWVSAISHAGGNTFYADSVKGRFTISRDNSKNTLYLQMNSLRAEDTAVYYCARVSPIASGMDYWGQGTLVTVSS
VL: EIVLTQSPGTLSLSPGERATLSCRASQSVSSSYPSWYQQKPGQAPRLLIYGASSRATGIPDRFSGSGSGTDFTLTISRLEPEDFAVYYCQHYPYPPSFTFGQGTKVEIK
notes: IgG in the assay
B14 was tested. Which “T½” value [3] did it give?
Its value is 4.3 min.

What about the “T½” value [4] of the same binder?
Its value is 1.09 min.

B15: L3.PY/L1.PS/H2.YQ (antibody, V domains shown)
VH: EVQLLESGGGLVQPGGSLRLSCAASGFTFGSYAMTWVRQAPGKGLEWVSAISYQGGNTFYADSVKGRFTISRDNSKNTLYLQMNSLRAEDTAVYYCARVSPIASGMDYWGQGTLVTVSS
VL: EIVLTQSPGTLSLSPGERATLSCRASQSVSSSYPSWYQQKPGQAPRLLIYGASSRATGIPDRFSGSGSGTDFTLTISRLEPEDFAVYYCQHYPYPPSFTFGQGTKVEIK
notes: IgG in the assay
For B15, which “T½” value [3] is on record?
The value was 3.09 min.

What about the “T½” value [4] of the same binder?
Its value is 2.69 min.

B16: P6E01/P6E01 (antibody, V domains shown)
VH: EVQLLESGGGLVQPGGSLRLSCAASGFTFGSYAMTWVRQAPGKGLEWVSAISGSGGNTFYADSVKGRFTISRDNSKNTLYLQMNSLRAEDTAVYYCARVSPIASGMDYWGQGTLVTVSS
VL: not shown
notes: IgG in the assay; also called P6E01_VHVL
For B16, which “T½” value [2] is on record?
The value was 2.8 min.

B17: L3.PY/L1.PS/H2.QR (antibody, V domains shown)
VH: EVQLLESGGGLVQPGGSLRLSCAASGFTFGSYAMTWVRQAPGKGLEWVSAISGSGGNTFYADQRKGRFTISRDNSKNTLYLQMNSLRAEDTAVYYCARVSPIASGMDYWGQGTLVTVSS
VL: EIVLTQSPGTLSLSPGERATLSCRASQSVSSSYPSWYQQKPGQAPRLLIYGASSRATGIPDRFSGSGSGTDFTLTISRLEPEDFAVYYCQHYPYPPSFTFGQGTKVEIK
notes: IgG in the assay
How did the “T½” value [3] turn out when B17 was run?
Its value is 17.2 min.

And the “T½” value [4]?
The value was 0.11 min.

B18: L3.PY/L1.PS/H2.QL (antibody, V domains shown)
VH: EVQLLESGGGLVQPGGSLRLSCAASGFTFGSYAMTWVRQAPGKGLEWVSAISGSGGNTFYADQLKGRFTISRDNSKNTLYLQMNSLRAEDTAVYYCARVSPIASGMDYWGQGTLVTVSS
VL: EIVLTQSPGTLSLSPGERATLSCRASQSVSSSYPSWYQQKPGQAPRLLIYGASSRATGIPDRFSGSGSGTDFTLTISRLEPEDFAVYYCQHYPYPPSFTFGQGTKVEIK
notes: IgG in the assay
B18 was tested. Which “T½” value [3] did it give?
Its value is 18.2 min.

What about the “T½” value [4] of the same binder?
Its value is 0.04 min.

B19: L3.PY/L1.PS/P6E01 (antibody, V domains shown)
VH: EVQLLESGGGLVQPGGSLRLSCAASGFTFGSYAMTWVRQAPGKGLEWVSAISGSGGNTFYADSVKGRFTISRDNSKNTLYLQMNSLRAEDTAVYYCARVSPIASGMDYWGQGTLVTVSS
VL: EIVLTQSPGTLSLSPGERATLSCRASQSVSSSYPSWYQQKPGQAPRLLIYGASSRATGIPDRFSGSGSGTDFTLTISRLEPEDFAVYYCQHYPYPPSFTFGQGTKVEIK
notes: IgG in the assay
How did the “T½” value [3] turn out when B19 was run?
The value was 1.91 min.

And the “T½” value [4]?
Its value is 10.2 min.

B20: L3.PY/L1.PH/P6E01 (antibody, V domains shown)
VH: EVQLLESGGGLVQPGGSLRLSCAASGFTFGSYAMTWVRQAPGKGLEWVSAISGSGGNTFYADSVKGRFTISRDNSKNTLYLQMNSLRAEDTAVYYCARVSPIASGMDYWGQGTLVTVSS
VL: EIVLTQSPGTLSLSPGERATLSCRASQSVSPHYLAWYQQKPGQAPRLLIYGASSRATGIPDRFSGSGSGTDFTLTISRLEPEDFAVYYCQHYPYPPSFTFGQGTKVEIK
notes: IgG in the assay
What does the source list for B20?
T½ [3]: 1.46 min; T½ [4]: 12.7 min
